Data published in PMC12032115.

Target: PTPRF (UniProt P10586)
Experiment: flow cytometry

Sequence of PTPRF (P10586 30-1907): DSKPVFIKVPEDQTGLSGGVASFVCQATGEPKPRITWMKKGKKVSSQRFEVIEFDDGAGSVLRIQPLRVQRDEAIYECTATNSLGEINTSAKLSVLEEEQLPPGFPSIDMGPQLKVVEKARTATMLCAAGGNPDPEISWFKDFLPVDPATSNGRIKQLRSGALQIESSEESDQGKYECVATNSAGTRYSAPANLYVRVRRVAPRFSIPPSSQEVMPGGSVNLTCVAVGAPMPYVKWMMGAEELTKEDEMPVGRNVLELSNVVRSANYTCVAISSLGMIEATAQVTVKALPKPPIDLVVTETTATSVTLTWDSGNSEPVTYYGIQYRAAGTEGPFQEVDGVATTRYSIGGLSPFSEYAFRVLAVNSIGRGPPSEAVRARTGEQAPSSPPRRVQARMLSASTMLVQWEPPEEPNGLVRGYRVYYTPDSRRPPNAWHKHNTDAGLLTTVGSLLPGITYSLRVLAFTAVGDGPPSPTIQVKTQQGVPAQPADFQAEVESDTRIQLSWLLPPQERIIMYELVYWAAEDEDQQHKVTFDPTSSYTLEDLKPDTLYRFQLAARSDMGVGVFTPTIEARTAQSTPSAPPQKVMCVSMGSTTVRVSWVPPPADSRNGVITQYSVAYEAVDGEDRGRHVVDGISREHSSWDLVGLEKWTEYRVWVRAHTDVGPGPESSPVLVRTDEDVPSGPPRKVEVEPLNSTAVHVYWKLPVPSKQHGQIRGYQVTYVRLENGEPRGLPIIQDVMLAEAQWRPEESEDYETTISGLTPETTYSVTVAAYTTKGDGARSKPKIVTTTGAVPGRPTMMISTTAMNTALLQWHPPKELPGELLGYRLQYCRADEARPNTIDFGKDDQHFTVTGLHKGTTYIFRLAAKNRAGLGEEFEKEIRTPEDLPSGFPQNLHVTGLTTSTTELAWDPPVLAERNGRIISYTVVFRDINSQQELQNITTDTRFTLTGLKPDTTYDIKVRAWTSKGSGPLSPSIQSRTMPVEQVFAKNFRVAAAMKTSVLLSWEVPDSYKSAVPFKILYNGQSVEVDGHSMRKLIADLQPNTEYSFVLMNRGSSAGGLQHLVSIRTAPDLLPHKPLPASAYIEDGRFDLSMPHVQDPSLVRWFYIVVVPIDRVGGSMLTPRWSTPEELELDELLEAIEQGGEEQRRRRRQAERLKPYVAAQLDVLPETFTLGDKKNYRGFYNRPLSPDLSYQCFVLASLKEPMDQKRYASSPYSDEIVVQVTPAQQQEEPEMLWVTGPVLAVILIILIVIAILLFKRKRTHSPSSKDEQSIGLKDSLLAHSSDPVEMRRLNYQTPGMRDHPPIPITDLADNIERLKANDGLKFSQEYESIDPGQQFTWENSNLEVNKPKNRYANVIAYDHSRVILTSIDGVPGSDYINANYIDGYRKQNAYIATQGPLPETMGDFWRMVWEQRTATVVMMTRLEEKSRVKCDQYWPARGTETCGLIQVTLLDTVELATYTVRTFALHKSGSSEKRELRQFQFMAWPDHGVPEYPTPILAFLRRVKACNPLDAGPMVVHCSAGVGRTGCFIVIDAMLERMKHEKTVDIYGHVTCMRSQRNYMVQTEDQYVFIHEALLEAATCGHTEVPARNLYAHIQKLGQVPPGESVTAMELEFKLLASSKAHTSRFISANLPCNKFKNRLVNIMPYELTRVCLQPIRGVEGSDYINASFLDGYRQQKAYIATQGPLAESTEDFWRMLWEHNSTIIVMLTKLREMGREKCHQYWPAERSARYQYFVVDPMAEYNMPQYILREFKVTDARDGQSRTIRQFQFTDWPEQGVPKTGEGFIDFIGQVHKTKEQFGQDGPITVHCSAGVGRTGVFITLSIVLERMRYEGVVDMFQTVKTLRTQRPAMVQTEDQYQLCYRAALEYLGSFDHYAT

For “TGGAGGATATAGGTTGGCTTAGGTGGCTTTGCGTTGGGTGTGGTGCATATCCTCCA [ZAJ4a]”, the Kd was 0.0233 µM.
